Data on three substances can be found in patent publication US20260258125A1.

The target of experiment [1] is membrane-bound endogenous human CEACAM5 and CEACAM6 on BxPC3 cells. The experiment in a line: cell-based or functional assay.
For experiment [2], the target named is membrane-bound endogenous human CEACAM5 and CEACAM6 on LS 174T cells. The experiment in a line: cell-based or functional assay.
The target of experiment [3] is membrane-bound endogenous human CEACAM5 and CEACAM6 on BxPC3 cells. The experiment in a line: flow cytometry on BxPC3 cells. On the technique in general: In flow cytometry, cells or beads pass a laser one at a time.
In experiment [4] the target is membrane-bound endogenous human CEACAM5 and CEACAM6 on LS 174T cells. The experiment in a line: flow cytometry on LS 174T cells.
The target in experiment [5] is human CEACAM5 on 293T cells (293T-huCEACAM5 cells) (human) (UniProt P06731). The experiment in a line: cell-based or functional assay. Also on record: unit not given beside the values.
Chain of human CEACAM5 on 293T cells (293T-huCEACAM5 cells) (human) (P06731 35-685 limits assumed): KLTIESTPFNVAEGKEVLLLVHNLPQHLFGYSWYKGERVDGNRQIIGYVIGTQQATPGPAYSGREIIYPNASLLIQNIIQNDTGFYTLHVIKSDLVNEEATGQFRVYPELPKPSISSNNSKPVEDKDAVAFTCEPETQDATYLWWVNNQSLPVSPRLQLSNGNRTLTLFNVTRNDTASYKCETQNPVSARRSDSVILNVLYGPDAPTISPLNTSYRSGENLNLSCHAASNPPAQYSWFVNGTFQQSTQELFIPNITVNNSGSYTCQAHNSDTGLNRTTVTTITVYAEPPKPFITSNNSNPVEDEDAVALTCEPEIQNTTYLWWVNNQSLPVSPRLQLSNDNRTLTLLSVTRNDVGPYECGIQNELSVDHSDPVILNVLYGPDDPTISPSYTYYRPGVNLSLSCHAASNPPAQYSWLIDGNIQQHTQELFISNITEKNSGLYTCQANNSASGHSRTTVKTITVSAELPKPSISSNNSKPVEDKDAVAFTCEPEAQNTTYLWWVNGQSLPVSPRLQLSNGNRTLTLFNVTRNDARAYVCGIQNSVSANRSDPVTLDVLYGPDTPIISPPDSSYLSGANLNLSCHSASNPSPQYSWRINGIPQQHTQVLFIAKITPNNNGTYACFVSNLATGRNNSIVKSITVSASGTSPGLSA
The target of experiment [6] is human CEACAM6 on 293T cells (293T-huCEACAM6 cells) (human) (UniProt P40199). Briefly: cell-based or functional assay. Also noted: unit not given beside the values.
Chain of human CEACAM6 on 293T cells (293T-huCEACAM6 cells) (human) (P40199 35-320): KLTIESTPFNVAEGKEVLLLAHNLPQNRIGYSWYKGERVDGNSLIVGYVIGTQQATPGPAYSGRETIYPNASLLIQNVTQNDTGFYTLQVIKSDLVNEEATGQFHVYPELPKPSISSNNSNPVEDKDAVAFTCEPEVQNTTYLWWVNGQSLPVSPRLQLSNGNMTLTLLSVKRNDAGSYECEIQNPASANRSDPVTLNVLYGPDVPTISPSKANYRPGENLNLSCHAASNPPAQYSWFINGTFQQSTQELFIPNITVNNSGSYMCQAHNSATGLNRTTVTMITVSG
Experiment [7] has as its target membrane-bound endogenous human CEACAM5 and CEACAM6 on BxPC3 cells. Briefly: cell-based or functional assay. Also on record: unit not given beside the values.
Experiment [8] has as its target membrane-bound endogenous human CEACAM5 and CEACAM6 on LS 174T cells. Briefly: cell-based or functional assay. Also on record: unit not given beside the values.
The target of experiment [9] is antigen of the anti-CEACAM5/6 antibodies on HPAC cells. Briefly: cell-based or functional assay.
For experiment [10], the target named is human CEACAM5 on 293T cells (293T-huCEACAM5 cells) (human) (UniProt P06731). The experiment in a line: cell-based or functional assay.
The target of experiment [11] is human CEACAM6 on 293T cells (293T-huCEACAM6 cells) (human) (UniProt P40199). Briefly: cell-based or functional assay.

A word on the EC50: it is the concentration giving half of the maximal effect.

With PR303561 (Tusamitamab) (antibody), the Internalization of pHAb-dye-labelled antibody, MFI (37° C.-4° C.)/DAR in experiment [1] came to 8230; in experiment [2] it was 1320. Moreover, the EC50 in experiment [3] turned out to be 3.06 nM; in [4] it was 1.74 nM.

Take IgG-MMAE: the IC50 of in vitro cytotoxicity of the ADC (CellTiter-Glo, 6 days) was 66 in experiment [5], 72 in [6], 100 in experiment [7] and 700 in experiment [8].

Regarding “non-relevant IgG isotype control (Crownbio, hIgG1) (antibody)”, the Internalization of pHAb-dye-labelled antibody, MFI (37° C.-4° C.)/DAR in experiment [9] is 3010; in experiment [10], 888; in [11], 975; in experiment [1], 0; in [2], 468.
